Results reported in patent US20220025010A1 (ANTAG THERAPEUTICS, published 2022).

Biological target: T1, human GIP receptor (human, UniProt P48546 22-466)
T1 sequence (looked up): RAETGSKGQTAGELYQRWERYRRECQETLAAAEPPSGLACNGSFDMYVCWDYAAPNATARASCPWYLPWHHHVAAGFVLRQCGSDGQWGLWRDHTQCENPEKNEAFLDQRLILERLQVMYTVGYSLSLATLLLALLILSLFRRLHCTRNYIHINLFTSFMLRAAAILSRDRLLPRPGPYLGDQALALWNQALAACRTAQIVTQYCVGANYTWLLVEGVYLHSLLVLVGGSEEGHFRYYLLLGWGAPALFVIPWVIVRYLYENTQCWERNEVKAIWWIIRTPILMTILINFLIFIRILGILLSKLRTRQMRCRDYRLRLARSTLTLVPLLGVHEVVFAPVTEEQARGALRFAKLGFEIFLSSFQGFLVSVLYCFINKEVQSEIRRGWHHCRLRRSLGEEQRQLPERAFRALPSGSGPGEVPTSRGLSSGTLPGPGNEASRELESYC
Test: cell-based or functional assay

B1: AT506 (peptide)
peptide: PGTFISDYSIAMDRIKQQDFVNWLLAQR
HELM: PEPTIDE1{P.G.T.F.I.S.D.Y.S.I.A.M.D.R.I.K.Q.Q.D.F.V.N.W.L.L.A.Q.R.[am]}|PEPTIDE2{[O=C(O)CCCCCCCCCCCCCCC(=O)[*:2]].[gGlu]}$PEPTIDE1,PEPTIDE2,16:R3-2:R2$$$V2.0; N-terminus assumed
SMILES: CC[C@H](C)[C@H](NC(=O)[C@H](CO)NC(=O)[C@H](Cc1ccc(O)cc1)NC(=O)[C@H](CC(=O)O)NC(=O)[C@H](CO)NC(=O)[C@@H](NC(=O)[C@H](Cc1ccccc1)NC(=O)[C@@H](NC(=O)CNC(=O)[C@@H]1CCCN1)[C@@H](C)O)[C@@H](C)CC)C(=O)N[C@@H](C)C(=O)N[C@@H](CCSC)C(=O)N[C@@H](CC(=O)O)C(=O)N[C@@H](CCCNC(=N)N)C(=O)N[C@H](C(=O)N[C@@H](CCCCNC(=O)CC[C@H](NC(=O)CCCCCCCCCCCCCCC(=O)O)C(=O)O)C(=O)N[C@@H](CCC(N)=O)C(=O)N[C@@H](CCC(N)=O)C(=O)N[C@@H](CC(=O)O)C(=O)N[C@@H](Cc1ccccc1)C(=O)N[C@H](C(=O)N[C@@H](CC(N)=O)C(=O)N[C@@H](Cc1c[nH]c2ccccc12)C(=O)N[C@@H](CC(C)C)C(=O)N[C@@H](CC(C)C)C(=O)N[C@@H](C)C(=O)N[C@@H](CCC(N)=O)C(=O)N[C@@H](CCCNC(=N)N)C(N)=O)C(C)C)[C@@H](C)CC
Question: What does the source list for B1?
Answer: CisBio cAMP agonism % Efficacy: 5%; CisBio cAMP antagonism % inhib: 78%; CisBio cAMP antagonism IC50: 147 nM; CisBio cAMP antagonism pIC50: 6.8; DiscoveRx cAMP antagonism % inhib: 90%; DiscoveRx cAMP antagonism IC50: 91 nM; DiscoveRx cAMP antagonism log IC50: -7 log M

B2: AT263 (peptide)
peptide: GGTFISDYSIAMDRIKQQDFVNWLLAQR
HELM: PEPTIDE1{G.G.T.F.I.S.D.Y.S.I.A.M.D.R.I.K.Q.Q.D.F.V.N.W.L.L.A.Q.R}|PEPTIDE2{[O=C(O)CCCCCCCCCCCCCCC(=O)[*:2]].[gGlu]}$PEPTIDE1,PEPTIDE2,16:R3-2:R2$$$V2.0; N-terminus assumed
SMILES: CC[C@H](C)[C@H](NC(=O)[C@H](CO)NC(=O)[C@H](Cc1ccc(O)cc1)NC(=O)[C@H](CC(=O)O)NC(=O)[C@H](CO)NC(=O)[C@@H](NC(=O)[C@H](Cc1ccccc1)NC(=O)[C@@H](NC(=O)CNC(=O)CN)[C@@H](C)O)[C@@H](C)CC)C(=O)N[C@@H](C)C(=O)N[C@@H](CCSC)C(=O)N[C@@H](CC(=O)O)C(=O)N[C@@H](CCCNC(=N)N)C(=O)N[C@H](C(=O)N[C@@H](CCCCNC(=O)CC[C@H](NC(=O)CCCCCCCCCCCCCCC(=O)O)C(=O)O)C(=O)N[C@@H](CCC(N)=O)C(=O)N[C@@H](CCC(N)=O)C(=O)N[C@@H](CC(=O)O)C(=O)N[C@@H](Cc1ccccc1)C(=O)N[C@H](C(=O)N[C@@H](CC(N)=O)C(=O)N[C@@H](Cc1c[nH]c2ccccc12)C(=O)N[C@@H](CC(C)C)C(=O)N[C@@H](CC(C)C)C(=O)N[C@@H](C)C(=O)N[C@@H](CCC(N)=O)C(=O)N[C@@H](CCCNC(=N)N)C(=O)O)C(C)C)[C@@H](C)CC
Question: How did the “CisBio cAMP agonism % Efficacy” value turn out when B2 was run?
Answer: Its value is 0%.

Question: What about the “CisBio cAMP antagonism % inhib” value of the same binder?
Answer: Its value is 69%.

Question: What about the “CisBio cAMP antagonism IC50” value of the same binder?
Answer: The value was 21 nM.

Question: What about the “CisBio cAMP antagonism pIC50” value of the same binder?
Answer: The value was 6.7.

Question: And the “DiscoveRx cAMP agonism Emax” value?
Answer: The value was 8.

Question: What about the “DiscoveRx cAMP antagonism IC50” value of the same binder?
Answer: Its value is 74 nM.

Question: And the “DiscoveRx cAMP antagonism log IC50” value?
Answer: The value was -7.1 log M.
